Positions count from the first letter of the chain named.
Key:
[1] = target: T1, recombinant human CCL16 (human, UniProt O15467 24-120); test: SPR (Biacore): antibody captured on anti-human Fc, 100 nM chemokine injected
T1 construct: also called HCC-4
T1 sequence (looked up): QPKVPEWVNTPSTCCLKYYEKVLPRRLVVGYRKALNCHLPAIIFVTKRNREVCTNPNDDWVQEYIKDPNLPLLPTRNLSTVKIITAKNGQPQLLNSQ
Procedure: We used Biacore™ analysis to test whether HC2/LK3 and HC2/LC3 cross-react with CCL16. Monoclonal mouse anti-human Fc was immobilized on all four flow cells of a CM5 chip at a flow rate of 25 μl/min with HBS-EP buffer containing 0.2 mg/mL BSA. Subsequently, 50 μl of a 1 μg/ml solution of chimeric, HC2/LC3, or HC2/LK3 antibody in HBS-EP buffer with 0.2 mg/ml BSA was injected over flow cells 2, 3, and 4, respectively. 150 μl of a 100 nM solution of CCL20 or CCL16 in HBS-EP buffer (or buffer alone) with 0.2 mg/ml BSA was then injected over all four flow cells at a flow rate of 40 μl/min. Dissociation followed for 20 min. Flow cell 1 (anti-human Fc antibody alone) was used as a reference for all flow cells.
Under these conditions, human CCL20 bound to the chimeric (FIG. 13A), HC2/LC3 (FIG. 13B), and HC2/LK3 (FIG. 13B) antibodies captured on the chip with similar strength.

[2] = target: T2, human CCL20-secreted alkaline phosphatase (SEAP) fusion (human, UniProt P78556 27-96); test: ELISA on CCL20-SEAP, Abs 450; x axis 'ug/ml' in 4-fold steps down from 10, taken as the antibody concentration as in FIG. 11C
T2 construct: also called hCCL20; human CCL20-SEAP; not shown: secreted alkaline phosphatase (SEAP), cDNA from pSEAP-Enhancer vector (Clontech)
T2 sequence (P78556 27-96): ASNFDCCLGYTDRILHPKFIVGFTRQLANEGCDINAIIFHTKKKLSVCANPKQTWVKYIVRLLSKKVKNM

[3] = target: T3, rhesus CCL20-secreted alkaline phosphatase (SEAP) fusion (rhesus monkey); test: as above
T3 construct: also called rCCL20; rhesus CCL20-SEAP; not shown: the SEAP reporter (cDNA from Clontech pSEAP-Enhancer) and its junction to CCL20
T3 chain: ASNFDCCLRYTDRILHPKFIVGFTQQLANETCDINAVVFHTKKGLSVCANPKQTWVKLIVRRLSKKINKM

[4] = target: T4, cynomolgus CCL20-secreted alkaline phosphatase (SEAP) fusion (cynomolgus monkey); test: as above
T4 construct: also called cCCL20; cynomolgus CCL20-SEAP; not shown: the SEAP reporter (cDNA from Clontech pSEAP-Enhancer) and its junction to CCL20
T4 chain: T3 chain with V38I

[5] = target: rat CCL20-secreted alkaline phosphatase (SEAP) fusion (rat, UniProt P97884 27-96; P05187 23-511); test: as above
rat CCL20-secreted alkaline phosphatase (SEAP) fusion, sequence (P97884 other isoform, or with tags, fused parts or gaps): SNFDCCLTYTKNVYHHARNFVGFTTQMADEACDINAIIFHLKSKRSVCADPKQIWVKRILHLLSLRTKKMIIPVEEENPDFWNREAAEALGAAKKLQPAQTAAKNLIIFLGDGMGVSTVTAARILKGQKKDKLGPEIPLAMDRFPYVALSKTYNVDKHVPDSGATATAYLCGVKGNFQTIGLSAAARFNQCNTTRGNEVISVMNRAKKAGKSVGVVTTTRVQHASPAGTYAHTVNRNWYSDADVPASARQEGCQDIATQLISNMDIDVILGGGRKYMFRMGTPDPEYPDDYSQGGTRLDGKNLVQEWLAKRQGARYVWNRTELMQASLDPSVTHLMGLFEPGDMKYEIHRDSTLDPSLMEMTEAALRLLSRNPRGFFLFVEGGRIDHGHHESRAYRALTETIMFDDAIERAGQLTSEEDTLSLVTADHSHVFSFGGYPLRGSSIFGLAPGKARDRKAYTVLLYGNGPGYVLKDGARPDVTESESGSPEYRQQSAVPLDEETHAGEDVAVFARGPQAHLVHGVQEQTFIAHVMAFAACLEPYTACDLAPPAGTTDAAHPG

[6] = target: T2, human CCL20-secreted alkaline …; test: ELISA (fluorescent HRP substrate): CCL20-SEAP captured on anti-alkaline phosphatase in 5-fold dilutions from 20 nM (x axis, nM), antibody at 1 ug/ml
Procedure: (§1) To test whether the chimeric and humanized antibodies can bind to mouse, cynomolgus, or rhesus macaque CCL20 orthologs, we used ELISA assays as illustrated in FIG. 15. Recombinant secreted alkaline phosphatase (SEAP)-chemokine fusion proteins were engineered as described in Example 2, expressed and purified for all of the CCL20 orthologs tested. Nunc MaxiSorb flat-bottom black plates were coated with 1 μg/ml mouse anti-placental alkaline phosphatase antibody (Pierce, cat# MA1-19354) in 50 mM sodium bicarbonate, pH 9.4, overnight at 4° C. Plates were then blocked using 1× phosphate buffered saline with Tween-20 (PBST) with 5% bovine serum albumin (BSA) for 2 hours at room temperature. 20 nM SEAP-CCL20 fusion proteins were serially diluted 5-fold in Opti-MEM medium (Invitrogen). Chimeric and humanized (HC2/LC3 and HC2/LK3) antibodies were diluted to 1 μg/ml in 1×PBST with 5% BSA, added to the plates, and incubated for 1 hr at room temperature. The plates were then washed with 1×PBST with 5% BSA three times. […] QuantaBlu fluorescent HRP substrate (Pierce cat#15169) was added for detection of bound antibody by measuring fluorescence in a Molecular Devices M5 (Excitation 325 nm/Emission 420 nm) plate reader.
(§2) While the hamster anti-mouse CCL20 antibody 2F5-5 MAb bound mouse CCL20 with a 50% effective dose (EC₅₀) of 64 pM (data not shown), neither the chimeric nor humanized anti-human CCL20 antibodies bound detectably to mouse CCL20 or rat CCL20 under the conditions described above. By contrast, both the chimeric and humanized antibodies effectively bound to human, rhesus, and cynomolgus CCL20 (FIGS. 16A-C, 17A and B).

[7] = target: T3, rhesus CCL20-secreted alkaline …; test: as above
Procedure: as §1, §2

[8] = target: T4, cynomolgus CCL20-secreted alkaline …; test: as above
Procedure: as §1, §2

[9] = target: T2, human CCL20-secreted alkaline …; test: ELISA (fluorescent HRP substrate): CCL20-SEAP captured on anti-alkaline phosphatase in 5-fold dilutions from 20 nM (x axis, nM), antibody at 1 ug/ml; the text rounds this number to 62 pM
Procedure: as §1, with “reader. […]” for “reader.”

[10] = target: T5, recombinant human CXCL4 (human, UniProt P02776 32-101); test: SPR (Biacore): antibody captured on the sensor chip, free chemokine injected; concentration not shown
T5 construct: also called PF4
T5 sequence (looked up): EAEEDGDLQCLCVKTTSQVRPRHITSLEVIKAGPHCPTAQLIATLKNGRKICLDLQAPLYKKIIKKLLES

B1: humanized anti-human CCL20 antibody 36LK3/36HC2 (antibody, human IgG1, kappa, V domains shown)
VH: QVQLVQSGAEVKKPGASVKVSCKASGYTFTNYWMHWVRQAPGQGLEWMGVIDPSDSYTTYAQKFQGRVTMTVDTSTSTVYMELSSLRSEDTAVYYCARGNYGVDYAMDYWGQGTLVTVSS
VL: DIQMTQSPSSLSASVGDRVTITCGASENIYGALNWYQRKPGKAPKLLIYGATNLADGVPSRFSGSGSGRDYTLTISSLQPEDFATYYCQNVLITPYTFGQGTKLEIKR
notes: expressed in HEK293 cells; also called HC2/LK3; HC2LK3
Q: Does B1 bind [1]?
A: Result: no binding (tested: 100 nM)

Q: And the “EC50 (read off the curve)” value [2]?
A: The value was about 0.02 µg/mL.

Q: What about the “EC50 (read off the curve)” value [3] of the same binder?
A: The value was about 0.02 µg/mL.

Q: And the “EC50 (read off the curve)” value [4]?
A: The value was about 0.02 µg/mL.

Q: Does B1 bind [5]?
A: Result: no binding (tested: 10 ug/ml)

Q: What about the EC50 [6] of the same binder?
A: Its EC50 is 0.0459 nM.

Q: And the EC50 [7]?
A: Its EC50 is 0.0629 nM.

Q: What about the EC50 [8] of the same binder?
A: The EC50 was 0.162 nM.

B2: humanized anti-human CCL20 antibody 36LC3/36HC2 (antibody, human IgG1, kappa, V domains shown)
VH: B1 VH
VL: B1 VL with G24R, R38Q, D70Q, T72S, Q100G
notes: expressed in HEK293 cells; also called HC2/LC3; HC2LC3
Q: For B2, which “EC50 (read off the curve)” value [2] is on record?
A: Its value is about 0.02 µg/mL.

Q: And the “EC50 (read off the curve)” value [3]?
A: Its value is about 0.02 µg/mL.

Q: And the “EC50 (read off the curve)” value [4]?
A: Its value is about 0.02 µg/mL.

Q: Does B2 bind [5]?
A: Result: no binding (tested: 10 ug/ml)

Q: And the EC50 [9]?
A: The EC50 was 0.0619 nM.

B3: chimeric 36F7C10 antibody (36F7C10-hFc) (antibody, V domains shown)
VH: QVQLQQPGAELVKPGASVKMSCKASGYTFTNYWMHWVKQRPGQGLEWIGVIDPSDSYTTYNQKFKGKATLTVDTSSSTAYMQLSSLTSEDSAVYYCTRGNYGVDYAMDYWGQGTSVTVSS
VL: DIQMTQSPASLSASVGETVTITCGASENIYGALNWYQRKQGKSPQLLIYGATNLADGMSSRFSGSGSGRQYSLKISSLHPDDVATYYCQNVLITPYTFGGGTKLEIK
notes: also called chimeric 36F710; Chimeric MAb
Q: Does B3 bind [1]?
A: Result: no binding (tested: 100 nM)

Q: Does B3 bind [10]?
A: Result: no binding

Q: What about the EC50 [6] of the same binder?
A: Its EC50 is 0.0336 nM.

Q: What about the EC50 [7] of the same binder?
A: The EC50 was 0.0498 nM.

Q: And the EC50 [8]?
A: Its EC50 is 0.101 nM.

Source: US20160046707A1 (EISAI R AND D MANAGEMENT, published 2016)
